Consider four molecules from patent US6566113B1, “Polypeptide having cellobiohydrolase activity” (Takara Shuzo Co., Ltd., priority 1998, dated 2003).

Data set [1] has as its target polypeptide of the present invention (cellobiohydrolase, open reading frame PH1171) (Pyrococcus horikoshii, UniProt O58925). As to the kind of experiment: Inhibition of pNPC-degrading activity by glucose, cellobiose and various reagents. In kind it is biochemical, Pyrococcus horikoshii OT3. As to conditions: for inhibition of pNPC-degrading activity by dithiothreitol: up to 10 mM.

Data set [2] has as its target Cellobiohydrolase from Thermotoga sp. FjSS-B.1. As to conditions: cellobiohydrolase of Thermotoga sp. FjSS-B.1; read-out: inhibition constant (Ki) for cellobiose; cited from earlier work.
Data set [3] in a line: pNPC-degrading activity on synthetic substrate. Type of data set: biochemical. As to conditions: 5 mM pNPC, 98° C., 20 minutes, pH 6.0. The protocol:
50 μl of 10 mM pNPC solution in 0.1 M MES-NaOH buffer (pH 6.0) was added to 50 μl of the polypeptide solution of the present invention or a 2-, 5- 10- or 20-fold dilution thereof with 0.1 M MES-NaOH buffer (pH 6.0). The mixture was reacted at 98° C. for 20 minutes. Absorbance at 405 nm of a supernatant obtained by centrifugation was measured to determine the pNPC-degrading activity based on the amount of released p-nitrophenol (pNP).

The nature of data set [4]: Identification of hydrolysis products by silica gel thin-layer chromatography. Type of data set: biochemical. The protocol: The activity of hydrolyzing cellulose of the expressed polypeptide was identified as follows. Specifically, the expressed polypeptide solution was allowed to act on various substrates. Products were then identified on thin-layer chromatography.
75 μl of the expressed polypeptide solution was added to 75 μl of the phosphoric acid-swollen cellulose. The mixture was reacted at 98° C. for 8 hours. 60 μl of acetonitrile was added to the equal volume of the reaction mixture and mixed. A supernatant obtained by centrifugation was evaporated under reduced pressure to dryness. The residue was dissolved in 10 μl of water. 2 μl of the solution was subjected to silica gel thin-layer chromatography. Two rounds of development were carried out using silica gel 60F254 (Merck) as a thin-layer plate and ethanol:butanol:water=5:5:1 as a solvent for development. Orcinol-sulfuric acid reagent was sprayed onto the thin-layer plate after development and the plate was heated using a hot plate to observe the spots. […]
Reactions were carried out as described above using oligosaccharides as substrates except that the dilution rate of the expressed polypeptide solution was 10 and the reaction time was 2 hours. Supernatants obtained by centrifuging the reaction mixtures were analyzed on silica gel thin-layer chromatography as described above.

Data set [5] can be described thus: 4-MUC-degrading activity, specific activity of purified polypeptide. As to conditions: 98° C., pH 6.0, 20 minutes. Type of data set: biochemical. The protocol: A supernatant obtained by centrifuging the heated supernatant was subjected to anion exchange chromatography using HiTrap Q column (Pharmacia). The sample was applied to two 5 ml HiTrap Q columns connected in series. Elution was carried out using a linear gradient in 20 minutes from 50 mM MES-NaOH buffer (pH 6.0) to the same buffer containing 200 mM NaCl at a flow rate of 2 ml/minute. 50 μl of 6 mM 4-MUC solution in 100 mM MES-NaOH buffer (pH 6.0) was added to 50 μl of one of the serial dilutions of the respective fractions. The mixture was reacted at 98° C. for 20 minutes. Fluorescence value was measured at an excitation wavelength of 355 nm and an emission wavelength of 460 nm. The 4-MUC-degrading activity was calculated based on the amount of released 4-MU.
2 ml of the active fraction from the hydrophobic column chromatography was desalted by ultrafiltration, lyophilized and then hydrolyzed in the presence of gas-phase HCl at 135° C. for 3 hours. The hydrolysate was dissolved in 100 μl of water. […] The polypeptide corresponding to 60 mU of the 4-MUC-degrading activity was subjected to the amino acid analysis. Thus, the specific activity was determined to be 17.0 U/mg.

Data set [6] is described as follows: CMC-degrading activity (reducing ends, Park and Johnson method). In kind it is biochemical. The protocol:
When cellulose is degraded using a cellulose hydrolase such as endoglucanase or cellobiohydrolase, reducing ends of glucose residues are newly generated. Then, increase in the amount of reducing end in a unit reaction time was measured according to the Park and Johnson method using carboxymethylcellulose (CMC) as a substrate in order to confirm whether or not a polypeptide having an activity of hydrolyzing cellulose which newly generates reducing ends of glucose residues existed in the Escherichia coli extract.
A CMC solution was prepared by dissolving CMC (Sigma) in 100 mM sodium citrate buffer (pH 5.0) at a concentration of 1%. […] Absorbance at 690 nm was then measured. The amount of reducing end was determined as the amount of corresponding glucose based on a calibration curve prepared using glucose at a known concentration. […]
50 μl of a 50-fold dilution of the polypeptide solution of the present invention with water, 25 μl of a 2% CMC aqueous solution and 25 μl of one of the above-mentioned buffers were mixed together. […] The amount of reducing sugar contained in a supernatant obtained by centrifuging the reaction mixture was measured according to the Park and Johnson method, and the CMC-degrading activity was calculated. […]

Data set [7] in a line: pH and heat stability: remaining CMC-degrading / cellobiohydrolase activity after heating. Type of data set: biochemical. The protocol: 25 μl of the polypeptide solution of the present invention and 25 μl of one of the buffers prepared in Example 3-(1) were mixed together. The mixture was heated at 95° C. for 10 minutes. 50 μl of 1% CMC solution in 0.1 M MES-NaOH buffer (pH 6.0) was added to 50 μl of a 50-fold dilution of the heated mixture with water. The mixture was reacted at 98° C. for 20 minutes. The amount of reducing sugar contained in a supernatant obtained by centrifuging the reaction mixture was measured according to the Park and Johnson method, and the CMC-degrading activity was calculated.
CMC was dissolved in 0.1 M MES-NaOH buffer (pH 6.0) to prepare a 1% CMC solution (pH 6.0). 50 μl of the MES buffer was added to 50 μl of the polypeptide solution of the present invention. The mixture was heated at 95° C. for 0, 1, 5 or 24 hours. 50 μl of the 1% CMC solution was added to 50 μl of a 50-, 200- or 500-fold dilution of a supernatant obtained by centrifuging the heated mixture with the MES buffer. The mixture was reacted at 98° C. for 20 minutes. The amount of reducing sugar contained in the reaction mixture was measured according to the Park and Johnson method to determine the CMC-degrading activity.

Consider `O[C@H](CS)[C@H](O)CS` (racemic) [DTT, dithiothreitol], for which the “inhibition of pNPC-degrading activity by dithiothreitol” value in data set [1] (5 mM pNPC, 98° C., pH 6.0) is reported as “not inhibited”; in data set [1] (5 mM pNPC, 98° C., pH 6.0, listed as dithiothreitol) it was “Almost no inhibition”.
With `O=C(O)CN(CCN(CC(=O)O)CC(=O)O)CC(=O)O` [EDTA, ethylenediaminetetraacetic acid], the inhibition at 1000 µM in data set [1] (pH 6, read-out: inhibition of pNPC-degrading activity) was approximately 50%. In addition, the “inhibition of pNPC-degrading activity” value in data set [1] (reagent at 1 mM, 5 mM pNPC, 98° C., pH 6.0) is “about 50%”.
Turning to `O=C[C@H](O)[C@@H](O)[C@H](O[C@@H]1O[C@H](CO)[C@@H](O)[C@H](O)[C@H]1O)[C@H](O)CO` [cellobiose], the Ki in data set [2] is 200 µM.

B1: polypeptide of the present invention: polypeptide of SEQ ID NO:1 with thermostable cellobiohydrolase activity, expressed from open reading frame PH1171 of Pyrococcus horikoshii OT3 (protein)
chain: ENTTYQTPTGIYYEVRGDTIYMINVTSGEETPIHLFGVNWFGFETPNHVVHGLWKRNWEDMLLQIKSLGFNAIRLPFCTESVKPGTQPIGIDYSKNPDLRGLDSLQIMEKIIKKAGDLGIFVLLDYHRIGCTHIEPLWYTEDFSEEDFINTWIEVAKRFGKYWNVIGADLKNEPHSVTSPPAAYTDGTGATWGMGNPATDWNLAAERIGKAILKVAPHWLIFVEGTQFTNPKTDSSYKWGYNAWWGGNLMAVKDYPVNLPRNKLVYSPHVYGPDVYNQPYFGPAKGFPDNLPDIWYHHFGYVKLELGYSVVIGEFGGKYGHGGDPRDVIWQNKLVDWMIENKFCDFFYWSWNPDSGDTGGILQDDWTTIWEDKYNNLKRLMDSCSKSSSSTQSVIRSTTPTKSNTSKKICGPAILIILAVFSLLLRRAPR
modifications: Pyrococcus horikoshii OT3
For B1, the “pNPC-degrading activity versus amount of polypeptide” value in data set [3] is listed as “increased depending on the concentration”. Also, the “product from phosphoric acid-swollen cellulose (TLC)” value in data set [4] (98° C. for 8 hours) was “generation of cellobiose”. Further, the “product from cellooligosaccharides (TLC)” value in data set [4] (cellotriose, cellotetraose, cellopentaose, 10-fold dilution, 98° C., 2 hours, pH 6.0) is listed as “principal degradation product was cellobiose”. Moreover, the “specific activity (4-MUC-degrading activity)” value in data set [5] was found to be 17.0 U/mg. The “activity relative to that in the presence of 0.5 M NaCl” value in data set [6] (2.5 M NaCl) is on record as “about 60%”; in data set [6] (absence of NaCl), “about 80%”. Further, in data set [7] (95° C. for 10 minutes at pH 5 to 7), the “activity after heating in the absence of a substrate” value is listed as “not decreased”. Moreover, the “retained CMC-degrading activity after heating” value in data set [7] (95° C. for 24 hours, pH 6.0) is on record as “about 90%”. In addition, the “remaining activity after heating” value in data set [7] (95° C., pH 6, heating for additional 24 hours) is reported as “About 80%”. In addition, the “retained activity after heating” value in data set [7] (in the presence of a substrate at pH 6 at 95° C. for 5 hours) is “about 90%”. Also, the “retained cellobiohydrolase activity after heat treatment” value in data set [7] (treatment at 75° C. for 20 minutes), in data set [7] (treatment at 95° C. for 10 minutes) and in data set [7] (treatment at 95° C. for 5 hours) was not below 80% each time.

A word on the inhibition: it is the share of the control response that was lost under treatment. The Ki is the dissociation constant of the complex between target and ligand, obtained from inhibition or displacement.
